Measured values: article PMC2275093

Legend:
Cren7 (recombinant) [1] = molecular target: T1, Cren7 (recombinant) (Sulfolobus solfataricus P2, UniProt Q97ZE3 1-60); test: EMSA
T1 sequence: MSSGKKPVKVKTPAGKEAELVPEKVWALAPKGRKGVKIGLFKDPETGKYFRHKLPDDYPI

Cren7 (recombinant) [2] = molecular target: T1, Cren7 (recombinant); test: NMR 1H-15N HSQC titration

B1: poly(GACT)15 60 nt ssDNA (ssDNA)
DNA: GACTGACTGACTGACTGACTGACTGACTGACTGACTGACTGACTGACTGACTGACTGACT
Kd (Cren7 (recombinant) [1]): ~2500 nM

B2: 10-bp duplex (dsDNA)
DNA 1: GCGAATTCGC
DNA 2: GCGAATTCGC
binding result (Cren7 (recombinant) [2]): binds
